B1: “2+1 IgG scFab, wt” (anti-MCSP/anti-huCD3) (bispecific antibody)
heavy 1: not shown
heavy 2: not shown
light: DIVLTQSPSSLSASLGDRVTISCSASQGIRNYLNWYQQRPDGTVKLLIYYTSSLHSGVPSRFSGSGSGTDYSLTISNLEPEDIATYYCQQYSKLPWTFGGGTKLEIKRTVAAPSVFIFPPSDEQLKSGTASVVCLLNNFYPREAKVQWKVDNALQSGNSQESVTEQDSKDSTYSLSSTLTLSKADYEKHKVYACEVTHQGLSSPVTKSFNRGEC
notes: LC007 (MCSP, two Fabs) x V9 (CD3, one scFab); wild-type Fc domain with knob/hole; also called Fc-wt
B2: “2+1 IgG scFab, LALA” (anti-MCSP/anti-huCD3) (bispecific antibody)
heavy 1: not shown
heavy 2: EVQLQESGPGLVKPSQSLSLTCSVTGYSITSGYYWNWIRQFPGNKLEWMGYITYDGSNNYNPSLKNRISITRDTSKNQFFLKLNSVTTEDTATYYCADFDYWGQGTTLTVSSASTKGPSVFPLAPSSKSTSGGTAALGCLVKDYFPEPVTVSWNSGALTSGVHTFPAVLQSSGLYSLSSVVTVPSSSLGTQTYICNVNHKPSNTKVDKKVEPKSCDKTHTCPPCPAPEAAGGPSVFLFPPKPKDTLMISRTPEVTCVVVDVSHEDPEVKFNWYVDGVEVHNAKTKPREEQYNSTYRVVSVLTVLHQDWLNGKEYKCKVSNKALPAPIEKTISKAKGQPREPQVCTLPPSRDELTKNQVSLSCAVKGFYPSDIAVEWESNGQPENNYKTTPPVLDSDGSFFLVSKLTVDKSRWQQGNVFSCSVMHEALHNHYTQKSLSLSPGK
light: B1 light
notes: also called Fc-LALA

Columns and labels:
[1] = biological target: T1, human FcγRIIIa-V158 (human, UniProt P08637 17-208); assay: SPR (Biacore T100, 25 °C); receptor captured on anti-Penta His, construct as analyte 500 - 4000 nM; steady state
T1 construct: His-tagged recombinant receptor captured on anti-Penta His antibody in SPR; also called huFcγRIIIa-V158-K6H6; HuFcγRIIIa-V158-K6H6; not shown: K6H6 tag, named only by this short form
Experimental: (§1) For analyzing interaction of different Fc-variants with human FcγRIIIa-V158 and murine FcγRIV direct coupling of around 6,500 resonance units (RU) of the anti-Penta His antibody (Qiagen) is performed on a CM5 chip at pH 5.0 using the standard amine coupling kit (Biacore, Freiburg/Germany). HuFcγRIIIa-V158-K6H6 and muFcγRIV-aviHis-biotin are captured for 60 s at 4 and 10 nM respectively.
(§2) Constructs with different Fc-mutations are passed through the flow cells for 120 s at a concentration of 1000 nM with a flow rate of 30 µl/min. The dissociation is monitored for 220 s. Bulk refractive index differences are corrected for by subtracting the response obtained in a reference flow cell. Here, the Fc-variants are flown over a surface with immobilized anti-Penta His antibody but on which HBS-EP has been injected rather than HuFcγRIIIa-V158-K6H6 or muFcγRIV-aviHis-biotin. Affinity for human FcγRIIIa-V158 and murine FcγRIV was determined for wild-type Fc using a concentration range from 500 - 4000 nM.
(§3) The steady state response was used to derive the dissociation constant KD by non-linear curve fitting of the Langmuir binding isotherm. Kinetic constants were derived using the Biacore T100 Evaluation Software (vAA, Biacore AB, Uppsala/Sweden), to fit rate equations for 1:1 Langmuir binding by numerical integration.

[2] = biological target: T2, murine FcγRIV (murine); assay: as above
T2 construct: Captured on anti-Penta His antibody in SPR; also called muFcγRIV-aviHis-biotin
Experimental: as §1, §2, §3

[3] = biological target: T2, murine FcγRIV; assay: SPR (Biacore T100, 25 °C); receptor captured on anti-Penta His, construct as analyte; kinetic
Experimental: as §1, §2, §3

[4] = biological target: T1, human FcγRIIIa-V158; assay: SPR (Biacore T100, 25 °C); His-tagged receptor captured on anti-Penta His, construct as analyte; kinetic 1:1 fit, one concentration (1000 nM)
Experimental: as §1, §2, §3

[5] = biological target: T1, human FcγRIIIa-V158; assay: SPR (Biacore T100, 25 °C); receptor captured on anti-Penta His, construct as analyte; kinetic; second value in parentheses, not explained
Experimental: as §1, §2, §3

[6] = biological target: T1, human FcγRIIIa-V158; assay: SPR (Biacore T100, 25 °C); receptor captured on anti-Penta His, construct as analyte; kinetic 1:1 fit, one concentration (1000 nM)
Experimental: as §1, §2, §3

[7] = biological target: T3, human MCSP expressed on tumor cells (human, UniProt Q6UVK1 30-2322); assay: flow cytometry on Colo-38 cells, 50 nM
T3 construct: whole, on cells; On Colo-38, WM266-4, MV-3 or MDA-MB-435 cells, as named in each row; also called huMCSP; Melanoma-associated Chondroitin Sulfate Proteoglycan
Experimental: (§4) Binding of the different bispecific constructs to CD3 on Jurkat cells (ATCC #TIB-152), and the respective tumor antigen on target cells, was determined by FACS. Briefly, cells were harvested, counted and checked for viability. 0.15 - 0.2 million cells per well (in PBS containing 0.1% BSA; 90 µl) were plated in a round-bottom 96-well plate and incubated with the indicated concentration of the bispecific constructs and corresponding IgG controls (10 µl) for 30 min at 4° C. For a better comparison, all constructs and IgG controls were normalized to same molarity. After the incubation, cells were centrifuged (5 min, 350 × g), washed with 150 µl PBS containing 0.1% BSA, resuspended and incubated for further 30 min at 4° C. with 12 µl/well of a FITC-or PE-conjugated secondary antibody. Bound constructs were detected using a FACSCantoII (Software FACS Diva). The “(scFv)₂” molecule was detected using a FITC-conjugated anti-His antibody (Lucerna, #RHIS-45F-Z). For all other molecules, a FITC- or PE-conjugated AffiniPure F(ab′)2 Fragment goat anti-human IgG Fcγ Fragment Specific (Jackson Immuno Research Lab # 109-096-098 / working solution 1:20, or #109-116-170 / working solution 1:80, respectively) was used. Cells were washed by addition of 120 µl/well PBS containing 0.1% BSA and centrifugation at 350 × g for 5 min. A second washing step was performed with 150 µl/well PBS containing 0.1% BSA. Unless otherwise indicated, cells were fixed with 100 µl/well fixation buffer (BD #554655) for 15 min at 4° C. in the dark, centrifuged for 6 min at 400 × g and kept in 200 µl/well PBS containing 0.1% BSA until the samples were measured with FACS CantoII. EC50 values were calculated using the GraphPad Prism software.
(§5) In a first experiment, different bispecific constructs targeting human MCSP and human CD3 were analyzed by flow cytometry for binding to human CD3 expressed on Jurkat, human T cell leukaemia cells, or to human MCSP on Colo-38 human melanoma cells.

[8] = biological target: T4, human CD3 expressed on Jurkat cells (human, UniProt P07766 23-207); assay: flow cytometry on Jurkat cells, 50 nM
T4 construct: CD3 complex on Jurkat cells (ATCC TIB-152); also called huCD3
Experimental: as §4, §5

T1 sequence (P08637 17-208 F176V): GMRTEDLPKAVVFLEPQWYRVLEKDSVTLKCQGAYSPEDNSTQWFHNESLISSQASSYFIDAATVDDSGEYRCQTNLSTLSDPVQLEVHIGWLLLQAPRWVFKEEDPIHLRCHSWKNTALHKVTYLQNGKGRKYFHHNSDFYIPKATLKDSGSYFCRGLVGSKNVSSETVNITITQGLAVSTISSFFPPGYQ
T2 sequence (A0A0B4J1G0 21-203): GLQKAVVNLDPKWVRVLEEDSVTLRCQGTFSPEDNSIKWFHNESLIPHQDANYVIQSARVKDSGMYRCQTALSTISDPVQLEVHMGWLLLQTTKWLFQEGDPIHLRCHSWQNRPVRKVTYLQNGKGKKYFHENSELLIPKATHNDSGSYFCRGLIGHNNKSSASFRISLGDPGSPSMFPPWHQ
T3 sequence (Q6UVK1 30-2322): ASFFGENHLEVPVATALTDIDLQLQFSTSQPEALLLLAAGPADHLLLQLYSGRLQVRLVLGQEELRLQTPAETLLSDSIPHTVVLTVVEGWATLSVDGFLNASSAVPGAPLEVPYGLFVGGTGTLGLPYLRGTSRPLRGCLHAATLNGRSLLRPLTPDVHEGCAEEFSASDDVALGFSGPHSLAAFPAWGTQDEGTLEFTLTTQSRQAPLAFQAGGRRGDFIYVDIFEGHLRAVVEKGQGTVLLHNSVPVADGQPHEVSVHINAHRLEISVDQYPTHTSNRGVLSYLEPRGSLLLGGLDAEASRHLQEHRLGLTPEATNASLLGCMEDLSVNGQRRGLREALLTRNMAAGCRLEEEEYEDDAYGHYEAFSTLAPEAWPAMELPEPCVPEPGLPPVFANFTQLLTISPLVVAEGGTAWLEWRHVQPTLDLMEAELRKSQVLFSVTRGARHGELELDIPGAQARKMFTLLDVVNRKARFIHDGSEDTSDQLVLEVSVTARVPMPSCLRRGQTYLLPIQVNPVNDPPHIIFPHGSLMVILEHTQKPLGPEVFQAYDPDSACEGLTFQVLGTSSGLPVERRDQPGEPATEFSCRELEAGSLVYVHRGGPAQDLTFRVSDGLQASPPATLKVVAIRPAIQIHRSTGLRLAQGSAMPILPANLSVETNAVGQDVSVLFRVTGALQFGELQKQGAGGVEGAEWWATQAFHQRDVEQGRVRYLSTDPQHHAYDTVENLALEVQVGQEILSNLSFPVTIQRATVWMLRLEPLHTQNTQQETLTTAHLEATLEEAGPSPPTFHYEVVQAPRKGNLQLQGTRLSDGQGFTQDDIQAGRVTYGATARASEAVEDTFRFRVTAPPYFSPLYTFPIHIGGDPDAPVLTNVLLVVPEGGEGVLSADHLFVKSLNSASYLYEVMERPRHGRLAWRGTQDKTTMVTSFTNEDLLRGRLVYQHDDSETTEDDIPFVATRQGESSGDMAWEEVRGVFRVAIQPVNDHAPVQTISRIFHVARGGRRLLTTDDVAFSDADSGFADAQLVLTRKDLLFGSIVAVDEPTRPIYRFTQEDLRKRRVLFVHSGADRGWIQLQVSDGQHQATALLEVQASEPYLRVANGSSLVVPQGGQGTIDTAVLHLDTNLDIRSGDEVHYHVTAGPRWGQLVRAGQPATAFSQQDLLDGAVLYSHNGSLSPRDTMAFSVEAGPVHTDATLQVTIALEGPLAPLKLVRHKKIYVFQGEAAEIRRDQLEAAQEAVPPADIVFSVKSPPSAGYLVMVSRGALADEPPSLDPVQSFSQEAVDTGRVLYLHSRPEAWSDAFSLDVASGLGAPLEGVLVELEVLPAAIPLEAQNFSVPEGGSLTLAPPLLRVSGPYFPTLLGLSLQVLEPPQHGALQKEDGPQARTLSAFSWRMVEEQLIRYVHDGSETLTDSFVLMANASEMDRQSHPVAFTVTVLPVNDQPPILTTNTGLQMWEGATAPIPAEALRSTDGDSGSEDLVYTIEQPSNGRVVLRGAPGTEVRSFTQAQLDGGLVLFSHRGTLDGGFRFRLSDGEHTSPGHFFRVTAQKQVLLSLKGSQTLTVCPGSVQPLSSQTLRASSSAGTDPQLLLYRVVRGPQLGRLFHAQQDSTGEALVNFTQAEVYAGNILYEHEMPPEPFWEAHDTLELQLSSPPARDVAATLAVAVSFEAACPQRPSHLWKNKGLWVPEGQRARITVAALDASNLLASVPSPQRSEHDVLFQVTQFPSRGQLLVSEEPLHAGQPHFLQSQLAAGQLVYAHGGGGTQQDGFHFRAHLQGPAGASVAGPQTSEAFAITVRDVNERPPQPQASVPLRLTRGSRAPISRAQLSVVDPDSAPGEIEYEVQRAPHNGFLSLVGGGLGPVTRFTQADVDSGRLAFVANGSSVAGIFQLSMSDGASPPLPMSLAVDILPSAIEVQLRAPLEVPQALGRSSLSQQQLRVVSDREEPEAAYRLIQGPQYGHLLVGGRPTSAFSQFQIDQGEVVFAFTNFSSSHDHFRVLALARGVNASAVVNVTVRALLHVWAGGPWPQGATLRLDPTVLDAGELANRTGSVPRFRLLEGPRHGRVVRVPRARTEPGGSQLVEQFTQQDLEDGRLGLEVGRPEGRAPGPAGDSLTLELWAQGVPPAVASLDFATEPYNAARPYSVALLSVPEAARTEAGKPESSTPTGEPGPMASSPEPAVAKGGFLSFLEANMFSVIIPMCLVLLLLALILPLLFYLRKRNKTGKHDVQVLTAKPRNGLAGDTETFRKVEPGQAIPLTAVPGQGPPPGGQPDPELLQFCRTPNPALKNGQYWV
T4 sequence (P07766 23-207 limits assumed): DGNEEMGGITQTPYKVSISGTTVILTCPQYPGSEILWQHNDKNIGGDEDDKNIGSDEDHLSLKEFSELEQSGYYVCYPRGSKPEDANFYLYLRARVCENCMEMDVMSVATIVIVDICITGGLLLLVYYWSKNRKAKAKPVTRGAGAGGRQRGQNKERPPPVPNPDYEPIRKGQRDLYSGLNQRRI

Binder | Kd [1] [µM] | Kd [2] [µM] | Kd [3] [µM] | Kd [4] [µM] | Kd [5] [µM] | Kd [6] [µM] | binding result [7] | binding result [8]
B1 | 3.47 | 1.5 | 0.576 | 0.6 | 1.2 |  |  | 
B2 |  |  |  |  |  | 2.13 | binds | binds

Reference: patent publication US20230340160A1 (published 2023)
